Several values for one entry are separate records, joined by “and”; a condition that tells them apart may be missing. Identical values can stand only once.

This assay addresses biotinylated CD3 epsilon epitope peptide. The assay is described as follows: SPR, method of Ref. Ex. 3, one-arm Ab.

B1: CE115HA000 V11L/D72A/L78I/D101Q with GGSGGGS inserted between Kabat 99 and 100, one-arm antibody (antibody)
chain 1: QVQLVESGGGLVQPGRSLRLSCAASGFTFSNAWMHWVRQAPGKGLEWVAQIKAKSNNYATYYAESVKGRFTISRADSKNSIYLQMNSLKTEDTAVYYCRYVHYGAGGSGGGSYYGVQAWGQGTTVTVSSASTKGPSVFPLAPSSKSTSGGTAALGCLVKDYFPEPVTVSWNSGALTSGVHTFPAVLQSSGLYSLSSVVTVPSSSLGTQTYICNVNHKPSNTKVDKKVEPKSCDKTHTCPPCPAPEAAGGPSVFLFPPKPKDTLMISRTPEVTCVVVDVSHEDPEVKFNWYVDGVEVHNAKTKPREEQYASTYRVVSVLTVLHQDWLNGKEYKCKVSNKALPAPIEKTISKAKGQPREPQVYTLPPSRCELTKNQVSLSCAVKGFYPSDIAVEWESNGQPENNYKTTPPVLDSDGSFFLVSKLTVDKSRWQQGNVFSCSVMHEALHNHYTQKSLSLSPDYKDDDDK
chain 2: EPKSSDKTHTCPPCPAPELLGGPSVFLFPPKPKDTLMISRTPEVTCVVVDVSHEDPEVKFNWYVDGVEVHNAKTKPREEQYNSTYRVVSVLTVLHQDWLNGKEYKCKVSNKALPAPIEKTISKAKGQPREPQVCTLPPSRDELTKNQVSLWCLVKGFYPSDIAVEWESNGQPENNYKTTPPVLDSDGSFFLYSKLTVDKSRWQQGNVFSCSVMHEALHNRYTQKSLSLSP
chain 3: DIVMTQSPLSLPVTPGEPASISCRSSQSLVHSNRNTYLHWYQQKPGQAPRLLIYKVSNRFSGVPDRFSGSGSGTDFTLKISRVEAEDVGVYYCGQGTQVPYTFGQGTKLEIKRTVAAPSVFIFPPSDEQLKSGTASVVCLLNNFYPREAKVQWKVDNALQSGNSQESVTEQDSKDSTYSLSSTLTLSKADYEKHKVYACEVTHQGLSSPVTKSFNRGEC
What is called Kd is a measure of binding affinity in units of concentration. Read a low Kd as higher affinity. Take B1: the dissociation constant (Kd) was 43.5 nM and 34.3 nM.

B2: CE115HA000 V11L/D72A/L78I/D101Q with GGGSGGGS inserted between Kabat 99 and 100, one-arm antibody (antibody)
chain 1: QVQLVESGGGLVQPGRSLRLSCAASGFTFSNAWMHWVRQAPGKGLEWVAQIKAKSNNYATYYAESVKGRFTISRADSKNSIYLQMNSLKTEDTAVYYCRYVHYGAGGGSGGGSYYGVQAWGQGTTVTVSSASTKGPSVFPLAPSSKSTSGGTAALGCLVKDYFPEPVTVSWNSGALTSGVHTFPAVLQSSGLYSLSSVVTVPSSSLGTQTYICNVNHKPSNTKVDKKVEPKSCDKTHTCPPCPAPEAAGGPSVFLFPPKPKDTLMISRTPEVTCVVVDVSHEDPEVKFNWYVDGVEVHNAKTKPREEQYASTYRVVSVLTVLHQDWLNGKEYKCKVSNKALPAPIEKTISKAKGQPREPQVYTLPPSRCELTKNQVSLSCAVKGFYPSDIAVEWESNGQPENNYKTTPPVLDSDGSFFLVSKLTVDKSRWQQGNVFSCSVMHEALHNHYTQKSLSLSPDYKDDDDK
chain 2: EPKSSDKTHTCPPCPAPELLGGPSVFLFPPKPKDTLMISRTPEVTCVVVDVSHEDPEVKFNWYVDGVEVHNAKTKPREEQYNSTYRVVSVLTVLHQDWLNGKEYKCKVSNKALPAPIEKTISKAKGQPREPQVCTLPPSRDELTKNQVSLWCLVKGFYPSDIAVEWESNGQPENNYKTTPPVLDSDGSFFLYSKLTVDKSRWQQGNVFSCSVMHEALHNRYTQKSLSLSP
chain 3: DIVMTQSPLSLPVTPGEPASISCRSSQSLVHSNRNTYLHWYQQKPGQAPRLLIYKVSNRFSGVPDRFSGSGSGTDFTLKISRVEAEDVGVYYCGQGTQVPYTFGQGTKLEIKRTVAAPSVFIFPPSDEQLKSGTASVVCLLNNFYPREAKVQWKVDNALQSGNSQESVTEQDSKDSTYSLSSTLTLSKADYEKHKVYACEVTHQGLSSPVTKSFNRGEC
On to B2, for which the Kd is 41.3 nM and 37.5 nM.

These data come from patent publication US20200377595A1 (Chugai, published 2020).
